# Patent US7666989B2 (priority 2003, dated 2010)
# “And” between values parts separate entries of the source, which are not always exact repeats. Identical values can stand only once. “Also recorded” adds a separate entry of the source. Marks after values point to notes of the source that are not given here.
# B1: CPT: human recombinant circularly permuted TRAIL (CPT), which consists of 166 amino acid residues; SEQ ID No:2 (protein)
# chain: TLSSPNSKNEKALGRKINSWESSRSGHSFLSNLHLRNGELVIHEKGFYYIYSQTYFRFQEEIKENTKNDKQMVQYIYKYTSYPDPILLMKSARNSCWSKDAEYGLYSIYQGGIFELKENDRIFVSVTNEHLIDMDHEASFFGAFLVGGGGGGVAAHITGTRGRSNT
# modifications: Synthetically generated peptide
# Experiments:
# [1] = system: MDA-MB-435 (human breast cancer cell); test: MTT cytotoxicity, MDA-MB-435; format: cell-based; conditions: 4 days
# From the text: (§1) Reagents: RPMI1640 is from GIBCO; MTT is from Bebco. Fetal bovine serum is purchased from Hangzhou SiJiQing Bioengineering Material Co. Ltd. (P. R. China).
# (§2) Cell lines: COLO 205 (human colon cancer cell), NCI-H460 (human lung cancer cell), RPMI 8226 (human multiple myeloma cell), U251 (human brain glioma cell) are from ATCC, USA. HL-60 (human promyelocytic leukemia cell), MDA-MB-231, MDA-MB-435 (human breast cancer cell), SCLC (human small-cell lung cancer cell), H125 (human lung cancer cell) and PC-3 (human […] cancer cell).
# (§3) The well-grown tumor cells were collected to prepare a cell suspension (1×10^4/ml) with RPMI 1640 medium containing 10% fetal bovine serum. The cell suspension was inoculated into a 96-well plate, 100 μL (containing 1000 tumor cells) per well. The plate was cultured in a 5% CO2 incubator at 37° C. for 24 hours, followed by addition of medicament.
# (§4) A blank control and a positive control using 5-fluorouracil or adriamycin are employed in the experiment. […]
# (§5) The supernatant was discarded. […] After gently shaking, the OD values were measured by a BIORAD 550 enzyme analyzer, with the detection wavelength being 540 nm and the reference wavelength being 450 nm.
# (§6) Dose-response curves were generated by plotting with the cell inhibition rates and different concentrations of medicament, and the half inhibitory concentrations (IC50) were calculated.
# [2] = system: RPMI 8226 (human multiple myeloma cell); test: MTT cytotoxicity, RPMI 8226; format: cell-based; conditions: 4 days
# From the text: as §1, §2, §3, §4, §5, §6
# [3] = system: human lung cancer NCI-H460; test: Growth of human lung cancer NCI-H460 xenograft in nude mice; format: in vivo, BALB/c-nu nude mice; conditions: ten injections; for Body Weight (g) Start / Tumor volume (mm^3) Start: baseline; for Inhibition rate (%): by tumor weight
# Procedure: The animals were then grouped based their tumor sizes. Each group included seven to eight animals.
# The evaluation standard for efficacy:
# T/C (%)>60 is ineffective;
# One additional injection was given at 80 mg/kg two weeks later. […] The treatment contained a total of ten injections.
# [4] = system: SCLC (human small-cell lung cancer cell); test: MTT cytotoxicity, SCLC; format: cell-based
# From the text: as §1, §2, §3
# A blank control and a positive control using 5-fluorouracil or adriamycin are employed in the experiment. The CPT samples have five concentrations, three parallel wells for each concentration. The cells were cultured in an incubator with 5% CO2 at 37° C. for 4 days. Then the culture medium was removed and 100 μL MTT solution (0.4 mg/ml in RPMI 1640) was added to each well. The plate was incubated at 37° C. for four additional hours.
# The supernatant was discarded. 150 μl DMSO was added into each well in order to solubilize Fomazan granulates. After gently shaking, the OD values were measured by a BIORAD 550 enzyme analyzer, with the detection wavelength being 540 nm and the reference wavelength being 450 nm.
# as §6
# [5] = system: PC-3 (human pancreas cancer cell); test: MTT cytotoxicity, PC-3; format: cell-based; conditions: 4 days
# From the text: as §1, §2, §3, §4, §5, §6
# [6] = Water solubility of the end product; format: physicochemical; conditions: purified protein, white powder
# From the text: Finally, the protein was purified by an ion exchange column and a gel filtration column Superdex 200 (Pharmacia) mounted in an AKTA HPLC system (Pharmacia). […] The end product was a white powder and was water soluble.
# cancer cells = test: Induction of apoptosis of cancer cells compared with wild type TRAIL; format: cell-based; conditions: CPT versus wild type TRAIL
# [7] = system: H125 (human lung cancer cell); test: MTT cytotoxicity, H125; format: cell-based; conditions: 4 days
# From the text: as §1, §2, §3, §4, §5, §6
# [8] = Side or toxic effects in treated tumor-bearing nude mice; format: in vivo, BALB/c-nu nude mice; conditions: treated nude mice versus negative control; body weight and viability
# From the text: No substantial difference in the parameters concerning the living status of mice, such as body weight and viability of the treated groups were observed compared with those of the negative control group, except that the sizes of tumor in the treated mice were smaller. […] Therefore, CPT may be used as an effective and safe medicament for treating cancers. CPT is both theoretically and industrially important and has a bright future in the market.
# [9] = CPT 1.7 mg/kg i.p. once per day
# [10] = CPT 5.0 mg/kg i.p. once per day
molecule,measurement,setting,value
B1,IC50,[1],0.008 ± 0.002 µg/mL
same,IC50,[2],0.824 ± 0.093 µg/mL
same,Body Weight (g) End,[3]; [9],19.8 ± 1.6 g
same,RTV,[3]; [9],2.27 ± 1.13
same,T/C (%),[3]; [9],38.0%
same,Tumor volume (mm^3) End,[3]; [9],706 ± 170* mm^3
same,Tumor weight,[3]; [9],0.77 ± 0.19 g
same,Body Weight (g) Start,[3]; [9],20.1 ± 1.9 g
same,Tumor volume (mm^3) Start,[3]; [9],200 ± 103 mm^3
same,Inhibition rate (%),[3]; [9],52.2%
same,Body Weight (g) End,[3]; [10],18.5 ± 2.5 g
same,RTV,[3]; [10],1.49 ± 0.76
same,Tumor volume (mm^3) End,[3]; [10],469 ± 359** mm^3
same,Tumor weight,[3]; [10],0.41 ± 0.28 g
same,Body Weight (g) Start,[3]; [10],20.4 ± 1.9 g
same,Tumor volume (mm^3) Start,[3]; [10],187 ± 51 mm^3
same,Inhibition rate (%),[3]; [10],74.5%
same,Body Weight (g) End,[3]; CPT 15 mg/kg i.p. once per day,21.1 ± 1.7 g
same,RTV,[3]; CPT 15 mg/kg i.p. once per day,0.79 ± 0.25
same,Tumor volume (mm^3) End,[3]; CPT 15 mg/kg i.p. once per day,189 ± 102** mm^3
same,Tumor weight,[3]; CPT 15 mg/kg i.p. once per day,0.21 ± 0.10 g
same,Body Weight (g) Start,[3]; CPT 15 mg/kg i.p. once per day,20.9 ± 1.1 g
same,Tumor volume (mm^3) Start,[3]; CPT 15 mg/kg i.p. once per day,192 ± 63 mm^3
same,Inhibition rate (%),[3]; CPT 15 mg/kg i.p. once per day,87.0% and 88.8%
same,IC50,[4]; 4 days,10 ± 0 µg/mL
same,inhibitory effect on the growth of SCLC cell,[4]; in words,some inhibitory effect; also recorded: some inhibition effect
same,IC50,[5],0.067 ± 0.002 µg/mL
same,water solubility of the end product,[6],water soluble
same,activity to induce apoptosis of cancer cells relative to wild type TRAIL,cancer cells,six to eleven times as strong
same,IC50,[7],0.085 ± 0.006 µg/mL
same,side or toxic effects on animals,[8],did not exhibit any apparent side or toxic effects
